Here are results for four sequences from patent publication US7485618B2, “FGF-5 supported and binding peptides” (Genencor International, Inc., priority 2003, dated 2009).

The test has as its target T1, FGF-5 (Homo sapiens, UniProt P12034).
T1 construct: host or cells: FGF-5 added exogenously to NR6R-3T3 murine fibroblasts
T1 sequence (P12034 21-268): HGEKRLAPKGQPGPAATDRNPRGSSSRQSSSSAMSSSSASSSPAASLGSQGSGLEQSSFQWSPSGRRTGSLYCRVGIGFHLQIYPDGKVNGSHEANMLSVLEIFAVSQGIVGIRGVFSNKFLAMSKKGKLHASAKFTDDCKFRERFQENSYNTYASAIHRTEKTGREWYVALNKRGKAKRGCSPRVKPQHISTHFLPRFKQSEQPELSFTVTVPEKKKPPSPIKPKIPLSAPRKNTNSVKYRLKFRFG
As to the kind of experiment: BLA binding assay on FGF-5 coated plates, nitrocefin readout. The following applies: purified peptide-BLA fusions at 0.1 nM, bound to FGF-5. The procedure: This Example describes secondary screening methods used to analyze FGF-5 binding npeptides. Individual clones were picked and grown up in 5 ml LB+5 ppm CMP overnight at 37° C. The cell pastes were then treated with 125μ of B-PER reagent (Pierce) for 30 min with slow mixing. COSTAR plates (96-well) were coated with 0.1 μg (100 μl of 1 μg/ml) FGF-5, carrier-free (R&D Systems #237-F5/CF, Lot #GQ18304A) with gentle rocking at 4° C. overnight, followed by blocking with Superblock blocking buffer (Pierce) for several hours at room temperature. Then, 100 μl B-Per treated supernatant from individual clones from pGV02-L were added to the FGF-5 coated plates. After one hour, plates were washed six times with PBS, 0.05% TWEEN®-20 and 200 μl of nitrocefin assay buffer containing 0.1 mg/ml nitrocefin (Oxoid) was added to measure residual bound beta-lactamase activity, using Abs490/min. Control wells contained pCB04 (See, FIG. 1C) beta-lactamase as a control. […] These clones were sequenced, and the results are provided in Table 1, where the first column is the name of the peptide, the second column is the nucleotide sequence and the third column is the amino acid sequence of the peptide:
Cell pastes were harvested from the 200 ml cell cultures described in Example 6, by centrifugation at 3,000×g for 10 min. The pastes were then treated with 25 ml of B-PER reagent (Pierce) for 40 min with slow mixing. The extract was separated by centrifugation at 20,000 g for 20 min. BLA activity of all liquid fractions was assayed using nitrocefin, and the concentration of fusion proteins in each fraction was calculated assuming the same specific activity as the WT enzyme. Fusion proteins were purified by IMAC chromatography (See, FIG. 4). The imidazole-eluted BLA-active fractions were pooled and the purity was found better than 95% as checked by SDS-PAGE. (See, FIG. 5).
The binding (BLA assay) was repeated using different peptide concentrations to see a dose response. To verify specific binding, the assay was also done using an irrelevant target. The results are shown in FIG. 6 and in Table 2, below.
On to “CLTVLWTTC (synthesized FGF-5 binding peptide) [2E2, tested as BLA and BBI/BCE fusions]”, for which the “Percent Bound at 0.1 nM” value was determined as 7%. On to “CRIHLAHKC (synthesized FGF-5 binding peptide) [2H10, tested as BLA fusion]”, for which the “Percent Bound at 0.1 nM” value was 8%. The value for “CEEIWTMLC (synthesized FGF-5 binding peptide) [1A6, tested as BLA and BBI/BCE fusions]” was 8%; that for “CHYLLTNYC (synthesized FGF-5 binding peptide) [2H9, tested as BLA fusion]” was 5%.
